Measured values published in the DeepSol protein solubility set.

assay: soluble on expression in E. coli; label from the status in PepcDB or PDB records

Sequence | soluble on expression in E. coli
MATIRTKFRSSSAEGREGALYYQVIHNRVVRQISTGYKLFASEWDQRSEAVIPCQHPAGMERDNYLLSVGERIRRDKIRLEKAIRTLSQSGPFTADDIVIRFHDSGQEPSFNDYIRQQIVRLKRLGKIRTSETYTAALKSFSSFMKGSDILFGELSSDLLMEYEAYLKNRGNSPNTISFYMRILKAVYNRAVENGLTGQRNLFKSVYTGVEKTLKRAIHLNDIRRIKRLDLSLKPHLDFARDMFLFCFYTRGMSFVDMAYLKKGDIANGILTYRRKKTGQQLFIRWEKCMQEIIKLFCLSVQDFKVVH | not soluble
MSLGIRIGDGCIFRDPLTTRIDVSRPALVSIGSNVDMNTYFQILTHDWASFVFRNKYHDFVNSSGRVEIGSNIYIGTNVIVLRGVTIGDNCVIGAGSVVTHDIPANSVAVGAPCRVVCSLDEYYQKRKVKGLQEAVEHVKAFQKNFGRDPLPHELYEEFIYFVDASNVEEYERQGVPVRSQLSIAYGDWLSTHKAKFSSYDDFIQYVNQKMNETLEHHHHHH | not soluble
IGQVNLQLRANFTYQTTDIIDKDEAANELWYKMDKGFQLNQSRGLIALGLFKDQDEIDRSPKQTSNRPILPGDIKYKDVNGDGVINDDDIVPLGYREVPGLQYGVGLSANWRNWNLSVLFQGTGKCDFFIGGNGPHAFRSERYGNILQAMVDGNRWIPKEISGTTATENPNADWPLLTYGNNDNNNRKSTFWLYERKYLRLRNVEVSYDFPQTWTRKFFVSNLRLGFVGQNLLTWAPFKMWDPEGTREDGSNYPINKTFSCYLQISF | not soluble
TYAFQRRRFWETPGADGPADAAGLGLGATEHALLGAVVERPDSDEVVLTGRLSLADQPWLADHVVNGVVLFPGAGFVELVIRAGDEVGCALIEELVLAAPLVMHPGVGVQVQVVVGAADESGHRAVSVYSRGDQSQGWLLNAEGMLGVAAAETPMDLSV | soluble
MATRNEEILRKPDWLKIKLNTNDNYTGLKKMMREKNLHTVCEEAKCPNIHECWGARRTATFMILGAVCTRACRFCAVKTGLPNELDLNEPERVAESVELMNLKHVVITAVARDDLRDQGSNVYAETVRKVRERNPFTTIEILPSDMGGDYEALETLMASRPDILNHNIETVRRLTPRVRARATYDRTLQFLRRSKELQPDIPTKSSLMVGLGETMEEIYETMDDLRANDVDILTIGQYLQPSRKHLKVEKYYTPLEFGKMRKIAMEKGFKHCQAGPLVRSSYHADEQVNEAAKEKQRQGEEQLN | not soluble
MSLNVFDKSGQSSGYKLSSTIGKNNTDVNKNDNNSAIYSESAVIVFGYPEYLSNQVITHFSHFGNILEDFEILRSSTGINNNTFRLHANLNALQEGSMSTKLPIFTGEGWVKITYDSPTSALRALKENGTVFTGHLIGCIPYSKSAVEQLALISVDKSDDIGSIDLGQINKSVNEDSRNKGSNGKVYPSLGSVDHIEPINGRQKEANMKSFGTPIINNNQQYLDHSIMAHPRHKLDIQDGKSLFVHNSSHHKTQFLDNIEKKIKEKEANKNESGSWSGRLTNWVFGWDNEGHHHHHH | soluble
MPSIRLADLAQQLDAELHGDGDIVITGVASMQSAQTGHITFMVNPKYREHLGLCQASAVVMTQDDLPFAKSAALVVKNPYLTYARMAQILDTTPQPAQNIAPSAVIDATAKLGNNVSIGANAVIESGVELGDNVIIGAGCFVGKNSKIGAGSRLWANVTIYHEIQIGQNCLIQSGTVVGADGFGYANDRGNWVKIPQIGRVIIGDRVEIGACTTIDRGALDDTVIGNGVIIDNQCQIAHNVVIGDNTAVAGGVIMAGSLKIGRYCMIGGASVINGHMEICDKVTVTGMGMVMRPITEPGVYSSGIPLQPNKVWRKTAALVMNIDDMSKRLKSLERKVNQQD | not soluble
SPLPVALQTRLAKRGILKHLEPEPEEEIIAEDYDDDPVDYEATRLEGLPPSWYKVFDPSCGLPYYWNADTDLVSWLSPHDPNSVVTKSAKKLRSSNADAEEKLDRSHDKSDRGHDKSDRSHEKLDRGHDKSDRGHDKSDRDRERGYDKVDRERERDRERDRDRGYDKADREEGKERRHHRREELAPYPKSKKAVSRKDEELDPMDPSSYSDAPRGTWSTGLPKRNEAKTGADTTAAGPLFQQRPYPSPGAVLRANAEASRTKQQD | soluble
SSFLGGLFGPACEIDVILNDAESRKTAELKTEEGKLEKHYLFYDGESVSGKVNINVKQTSKRLEHQGIRIEFVGQIELFSDKSNTHEFVNLVKELALPGELTQNRSYDFEFMQVEKPYESYVGANVRLRYFLKVTIVRRLSDLVKEYDLIVHQLATYPDVNNSIKMEVGIEDCLHIEFEYNKSKYHLKDVIVGKIYFLLVRIKIQHMELQLIKKEMTGIGPSTTTETETVAKYEIMEGAPVKGESIPIRLFLAGYDLTPTMRDVNKKFSVRYFLNLVLVDEEDRRYFKQQEIVLWRKAPEKMRKRNFHQRYESPEPRPSLSAEQPEM | soluble
MGSDKIHHHHHHMLILRARWWTNMCLICQRIDLIKKEENPYFVKELETGYLVVGDHQYFEGYSLFLAKEHVSELHHLKKETRLRFLEEMSLVQEAVAKAFAAEKMNIELLGNGDAHLHWHLFPRRTGDMNGHGLKGRGPVWWVPFEEMTAETCQAKPDEIKRLVKRLSSEVDKLLEIKE | not soluble
GMYEEWKIVKREAPILGNDQLIENIWKMKREDSPYDIISLHKVNLIGGGNDAVLILPGTWSSGEQLVTISWNGVHYTIPDYRKSIVLYLARNGFNVYTIDYRTHYVPPFLKDRQLSFTANWGWSTWISDIKEVVSFIKRDSGQERIYLAGESFGGIAALNYSSLYWKNDIKGLILLDGGPTKHGIRPKFYTPEVNSIEEMEAKGIYVIPSRGGPNNPIWSYALANPDMPSPDPKYKSISDFLMDSLYVTGSANPYDYPYSKKEDMFPILASFDPYWPYRLSLERDLKFDYEGILVPTIAFVSERFGIQIFDSKILPSNSEIILLKGYGHLDVYTGENSEKDVNSVVLKWLSQQR | soluble
MEPHSLRYNLTVLSWDGSVQSGFLTEVHLDGQPFLRCDRQKCRAKPQGQWAEDVLGNKTWDRETRDLTGNGKDLRMTLAHIKDQKEGLHSLQEIRVCEIHEDNSTRSSQHFYYDGELFLSQNLETKEWTMPQSSRAQTLAMNVRNFLKEDAMKTKTHYHAMHADCLQELRRYLKSGVVLRRTVPPMVNVTRSEASEGNITVTCRASGFYPWNITLSWRQDGVSLSHDTQQWGDVLPDGNGTYQTWVATRICQGEEQRFTCYMEHSGNHSTHPVPS | soluble
MGESGLFDTPDQKVGLTGRPLREFPEPEPLHKHGPAKIISMCNQKGGVGKTTSTINLGACLAEAGRKVLLVDLDPQGALSAGLNIPHEELEITVYNLLVDRHTSIHQAIHHTSVDGLDLVPANIDLSAAEIQLVNEVGREQTLARALRPVMRDYDFIILDCQPSLGLLTVNALTCSHGVIIPMECEYFSLRGLALLTDTVEKVRDRLNFDLEIVGILVTMFDRRTTHAREVMSRVVEVFEDRVFDTVITRTVRFPETSVAGEPITTWAPSSQGAQQYRQLAREVIERTA | not soluble
QVQLVQSGPELKKPGETVKISCKASGYMFTNYGMNWVKQAPGKALKWMGWINPYTGESTFADDFKGRFAFFLETSATTAYLQINNLKNEDTATYFCARGTTIVWAMDYWGQGTSVTVSSASTKGPSVFPLAPSSKSTSGGTAALGCLVKDYFPEPVTVSWNSGALTSGVHTFPAVLQSSGLYSLSSVVTVPSSSLGTQTYICNVNHKPSNTKVDKKVEPLSCDKTHT | soluble
SMCPGCGCGRIIHLGLGTEQVEAYVREHFPHARVDRMDRDTTARRGGHARILRKVAERQTDILIGTQMVAKGHDFPGITLVGILSVESTLNIPDYRSAERTFQLVTQLIGRAGRGDDPGRVLIQSLNP | not soluble
MGSDKIHHHHHHMPVDSKHPLWLANQPRWERCRTALQGRDAVHAAGEKYLPKLAGQDKAEYDAYKGRAMFYGATARTEEALIGMVFRKEPTVTLPAALQPMIEDADLAGTPVDTFIENVTKEVIDVTRVGVLVDYPVASGEFMTVGQAQAAGMRPYLATYKAEAIINWRTARVRGVNQLVLVVLAECYTDPKDEFTAEEKTQYRVLDLVDGFYRVRIYRTDLNTPAFEYTPMMNGKRLPYIPFVLIGRNGEAIDPQKPVLLDLVDVNMSHYRGTADYEHALHFTALPTAVVIGHELKEGQALKIGSSEAWVFTDPQADAKYLEFSGQGLDSIKVSLERKEGMMATLGARILAPEKRDAEAAETAKIHRAGENSVLGGIALGVGRSLAKAFRWAAEWAGAGSGTVEVKLNTEFFPAGLTAQDLTALVGALQAAAISPQTFYDNMRRGSIIDDGVTFEEEQDRIEAAGPALGTLGGQDVKPANGAV | not soluble
SIGLFKVKEKQREQAQNATRGGASVKKQSAGELRLHKDISELNLPSSCSISFPNGKDDLMNFEVSIKPDDGYYHNGTFVSHSKSLLCIHMKLQKLNAKPRFIIPISIWKETFA | soluble
MSLKITQIQAQNKNKNRRNVFVDGSYEFSCDMEIILKYKLKEGLEIDRTKLLQVIDQSKEEFAFRLALNYLSFKSRTSFEIYTYLLKKEYEEKIIEKVIEKLKYYRYVDDNQYVLNYIKTALAEGKKGKDRVQSDLINKKIPQDMIESHMHLFSCETNLEIAKELSNKYFKQNAHLPFNQFKNKLSQFLMRKGFNWEIINTCLNILEQDSEVQSHIDSNKELYVKEAIKLGNKYFVKYKAKETNPYLVEHKVKSHLYQKGYDKDTINLAFKKIIENSEGHHHHHH | not soluble
MSVESSNQTTSLSSYLLKCAFSFGTAPPSLSPPSSTGSYEEADFSRFVQQNETGHKLTSYQSLANRDPCTIPDELHQEMKSLKKKEEAFKTSLCGFHRRGQKCAYGEKCKFAHSVHELRFPQTKRNHRNYKTVLCNNFSTTGHCKYGIRCQFIHRSMDSTSSNQSNETENITIDLNVQSDVFRAFALDSTSSLPNWHCSALLH | not soluble
MGSDKIHHHHHHMKPALKSTPALRITLVCNTAWAIYTYRQGLIRMLVGRGVDVTVLAPRDRTFELLVAMGCRCIELPVASKGTSPRDDLRTLYALYRQYRSIRPHVVFHYTIKPNIYGSIAARLAGVQSVAVTTGLGYVFIQQSRAAQVAKKLYRFAFRFPREIWFLNRDDQAAFVEQNLLVHPERARLLHGEGVDLEQFAFTPLPERADYRFVLIGRLLWDKGVGEYVEAARRLRERYPHARFQLLGPVGVDNPSAITREEVAAWEREGIIEYLGEAHDVRPFIAEADCVVLPSYREGVPRTLMEASAMGRPIVTTDVPGCREVVADGVNGLLCEARNAASLAATLARMLDMSGAERRALAERGRKKVAEEFDERVVVEMYKDLVQKMTGVLL | not soluble
MGSDKIHHHHHHMNVLLSRKDTIRFLILSELMVNPECNQRDIAKKLGLTPQAISEHFKEMVSEGFINVVHKGYYEVTRKGEEWMSRNLIDLHLFSEELLKKIYSKTVVAIAKGRIAENDSVRYWFGDGYIFAERSAKGNGVALTSAEDGEDVLIKPTGSFEPPEKGEIIIVKVPGVAEGGSRKVDLDSFRELVKSRPTSIVVAIGIEALVTCRKIRVEPIFFGAKEVCIEAAHHGSGVIVACTESMLNDLLRSLIDEGLEFEIKEFVKAT | not soluble
MIDEYDDLAHDSSEGEFEPNTLTPEEKPPHNVDEDRIESTGVAAPMQGTEEPEKGDQKESDGASQVDQSVEITRPETSYYQTLESPSTKRQKLDQQGNGDQTRDFGTSMEL | soluble
MAGQIRMSPEELKSKATRYGQGANQIEDILRQLQNLQNELRGEWEGRAFEGFDQQFNQLKPKVQNFAQLLQEINMQLNKTAEAVARHDEDLSRNFGLQ | not soluble
MSNVHPYTIFATMPHKSTAKDILIMSYDLSKRLVIGLASSALFDLSESDNIFRMEGAETYRQYQREKQNHPLKKALSFHLLKNFCQSMK | not soluble
